Six molecules from patent publication US20260001928A1 (CORTERIA PHARMACEUTICALS, priority 2022, published 2026) can be followed below.

Test [1] deals with human corticotropin-releasing factor 2a (CRF2a receptor) (human), Q13324. Nature of the test: cell-based or functional assay.
For test [2], the target named is T1, CRF1R receptor (UniProt P34998 24-415, limits assumed).
T1 sequence (looked up): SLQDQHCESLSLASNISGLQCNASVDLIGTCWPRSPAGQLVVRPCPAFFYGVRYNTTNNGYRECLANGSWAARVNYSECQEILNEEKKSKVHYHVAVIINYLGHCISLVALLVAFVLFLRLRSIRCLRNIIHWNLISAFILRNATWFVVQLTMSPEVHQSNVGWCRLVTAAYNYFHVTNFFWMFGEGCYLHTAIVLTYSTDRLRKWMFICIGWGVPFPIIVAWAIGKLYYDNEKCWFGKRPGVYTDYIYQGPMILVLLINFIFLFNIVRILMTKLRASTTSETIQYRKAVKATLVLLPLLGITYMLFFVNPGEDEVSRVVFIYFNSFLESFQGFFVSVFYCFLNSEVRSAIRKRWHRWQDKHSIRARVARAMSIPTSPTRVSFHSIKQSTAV
The experiment in a line: cell-based or functional assay.

*1 amine or outer side, *2 acyl side, *3 side chain or, on linkers, in order; H or OH if unused. Where no end group is shown, it is not given here. Side-chain parts run from the residue outwards. [ ]: non-standard residue; d: D form. The star is where a group is joined. C18 diacid = O=C(O)CCCCCCCCCCCCCCCCC(=O)*; C16 diacid = O=C(O)CCCCCCCCCCCCCCC(=O)*; γGlu = O=C(O)[C@H](CCC(=O)[*:2])N[*:1]; NMeI = CC[C@H](C)[C@H](NC)C(=O)O; Pentanoyl = CCCCC(=O)*; AEEA = NCCOCCOCC(=O)O; Aib = CC(C)(N)C(=O)O

human corticotropin-releasing factor 2a (CRF2a receptor) (human), Q13324, sequence (Q13324 20-411): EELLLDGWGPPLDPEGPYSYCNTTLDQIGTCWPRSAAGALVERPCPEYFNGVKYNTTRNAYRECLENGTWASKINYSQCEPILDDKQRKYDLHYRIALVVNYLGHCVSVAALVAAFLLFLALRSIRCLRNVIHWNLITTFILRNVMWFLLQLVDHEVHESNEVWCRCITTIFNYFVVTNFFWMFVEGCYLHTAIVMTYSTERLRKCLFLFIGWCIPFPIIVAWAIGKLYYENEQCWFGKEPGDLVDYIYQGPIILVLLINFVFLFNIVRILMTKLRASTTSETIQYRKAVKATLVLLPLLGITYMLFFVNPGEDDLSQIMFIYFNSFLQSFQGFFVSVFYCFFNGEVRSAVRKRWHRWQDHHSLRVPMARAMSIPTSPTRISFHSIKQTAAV

B1: SEQ ID NO 120 (peptide)
peptide: Pentanoyl-VLSLD[dV]PIKLK([AEEA-AEEA-γGlu-C18 diacid])KILLEQEKQKKQREQAETN[Aib]QILAQV-NH2
SMILES: CCCCC(=O)N[C@H](C(=O)N[C@@H](CC(C)C)C(=O)N[C@@H](CO)C(=O)N[C@@H](CC(C)C)C(=O)N[C@@H](CC(=O)O)C(=O)N[C@@H](C(=O)N1CCC[C@H]1C(=O)N[C@H](C(=O)N[C@@H](CCCCN)C(=O)N[C@@H](CC(C)C)C(=O)N[C@@H](CCCCNC(=O)COCCOCCNC(=O)COCCOCCNC(=O)CC[C@H](NC(=O)CCCCCCCCCCCCCCCCC(=O)O)C(=O)O)C(=O)N[C@@H](CCCCN)C(=O)N[C@H](C(=O)N[C@@H](CC(C)C)C(=O)N[C@@H](CC(C)C)C(=O)N[C@@H](CCC(=O)O)C(=O)N[C@@H](CCC(N)=O)C(=O)N[C@@H](CCC(=O)O)C(=O)N[C@@H](CCCCN)C(=O)N[C@@H](CCC(N)=O)C(=O)N[C@@H](CCCCN)C(=O)N[C@@H](CCCCN)C(=O)N[C@@H](CCC(N)=O)C(=O)N[C@@H](CCCNC(=N)N)C(=O)N[C@@H](CCC(=O)O)C(=O)N[C@@H](CCC(N)=O)C(=O)N[C@@H](C)C(=O)N[C@@H](CCC(=O)O)C(=O)N[C@H](C(=O)N[C@@H](CC(N)=O)C(=O)NC(C)(C)C(=O)N[C@@H](CCC(N)=O)C(=O)N[C@H](C(=O)N[C@@H](CC(C)C)C(=O)N[C@@H](C)C(=O)N[C@@H](CCC(N)=O)C(=O)N[C@H](C(N)=O)C(C)C)[C@@H](C)CC)[C@@H](C)O)[C@@H](C)CC)[C@@H](C)CC)C(C)C)C(C)C
The molecule B1 registered an EC50 [nM] (cAMP) in test [1] of 1.33 nM. In test [2], the “Emax (% I)” value came to 3%.

B2: SEQ ID NO 80 (peptide)
peptide: Pentanoyl-VLSLD[dV]PIKLK([γGlu-C16 diacid])KILLEQEKQKKQREQAETN[Aib]QILAQV-NH2
SMILES: CCCCC(=O)N[C@H](C(=O)N[C@@H](CC(C)C)C(=O)N[C@@H](CO)C(=O)N[C@@H](CC(C)C)C(=O)N[C@@H](CC(=O)O)C(=O)N[C@@H](C(=O)N1CCC[C@H]1C(=O)N[C@H](C(=O)N[C@@H](CCCCN)C(=O)N[C@@H](CC(C)C)C(=O)N[C@@H](CCCCNC(=O)CC[C@H](NC(=O)CCCCCCCCCCCCCCC(=O)O)C(=O)O)C(=O)N[C@@H](CCCCN)C(=O)N[C@H](C(=O)N[C@@H](CC(C)C)C(=O)N[C@@H](CC(C)C)C(=O)N[C@@H](CCC(=O)O)C(=O)N[C@@H](CCC(N)=O)C(=O)N[C@@H](CCC(=O)O)C(=O)N[C@@H](CCCCN)C(=O)N[C@@H](CCC(N)=O)C(=O)N[C@@H](CCCCN)C(=O)N[C@@H](CCCCN)C(=O)N[C@@H](CCC(N)=O)C(=O)N[C@@H](CCCNC(=N)N)C(=O)N[C@@H](CCC(=O)O)C(=O)N[C@@H](CCC(N)=O)C(=O)N[C@@H](C)C(=O)N[C@@H](CCC(=O)O)C(=O)N[C@H](C(=O)N[C@@H](CC(N)=O)C(=O)NC(C)(C)C(=O)N[C@@H](CCC(N)=O)C(=O)N[C@H](C(=O)N[C@@H](CC(C)C)C(=O)N[C@@H](C)C(=O)N[C@@H](CCC(N)=O)C(=O)N[C@H](C(N)=O)C(C)C)[C@@H](C)CC)[C@@H](C)O)[C@@H](C)CC)[C@@H](C)CC)C(C)C)C(C)C
In turn, B2 showed an EC50 [nM] (cAMP) in test [1] of 0.35 nM. The “Emax (% I)” value in test [2] amounted to 10%.

B3: SEQ ID NO 66 (peptide)
peptide: [NMeI]VLSLD[dV]PIKLK([γGlu-C16 diacid])KILLEQEKQKKQREQAETNVQILAQV-NH2
modifications: N-terminus assumed
SMILES: CC[C@H](C)[C@H](NC)C(=O)N[C@H](C(=O)N[C@@H](CC(C)C)C(=O)N[C@@H](CO)C(=O)N[C@@H](CC(C)C)C(=O)N[C@@H](CC(=O)O)C(=O)N[C@@H](C(=O)N1CCC[C@H]1C(=O)N[C@H](C(=O)N[C@@H](CCCCN)C(=O)N[C@@H](CC(C)C)C(=O)N[C@@H](CCCCNC(=O)CC[C@H](NC(=O)CCCCCCCCCCCCCCC(=O)O)C(=O)O)C(=O)N[C@@H](CCCCN)C(=O)N[C@H](C(=O)N[C@@H](CC(C)C)C(=O)N[C@@H](CC(C)C)C(=O)N[C@@H](CCC(=O)O)C(=O)N[C@@H](CCC(N)=O)C(=O)N[C@@H](CCC(=O)O)C(=O)N[C@@H](CCCCN)C(=O)N[C@@H](CCC(N)=O)C(=O)N[C@@H](CCCCN)C(=O)N[C@@H](CCCCN)C(=O)N[C@@H](CCC(N)=O)C(=O)N[C@@H](CCCNC(=N)N)C(=O)N[C@@H](CCC(=O)O)C(=O)N[C@@H](CCC(N)=O)C(=O)N[C@@H](C)C(=O)N[C@@H](CCC(=O)O)C(=O)N[C@H](C(=O)N[C@@H](CC(N)=O)C(=O)N[C@H](C(=O)N[C@@H](CCC(N)=O)C(=O)N[C@H](C(=O)N[C@@H](CC(C)C)C(=O)N[C@@H](C)C(=O)N[C@@H](CCC(N)=O)C(=O)N[C@H](C(N)=O)C(C)C)[C@@H](C)CC)C(C)C)[C@@H](C)O)[C@@H](C)CC)[C@@H](C)CC)C(C)C)C(C)C
In turn, B3 returned an EC50 [nM] (cAMP) in test [1] of 1.05 nM. The “Emax (% I)” value in test [2] is 4%.

B4: SEQ ID NO 121 (peptide)
peptide: Pentanoyl-VLSLD[dV]PIKLK([AEEA-AEEA-γGlu-C18 diacid])KILLEQEKQKKQREQAETNVQILAQV-NH2
SMILES: CCCCC(=O)N[C@H](C(=O)N[C@@H](CC(C)C)C(=O)N[C@@H](CO)C(=O)N[C@@H](CC(C)C)C(=O)N[C@@H](CC(=O)O)C(=O)N[C@@H](C(=O)N1CCC[C@H]1C(=O)N[C@H](C(=O)N[C@@H](CCCCN)C(=O)N[C@@H](CC(C)C)C(=O)N[C@@H](CCCCNC(=O)COCCOCCNC(=O)COCCOCCNC(=O)CC[C@H](NC(=O)CCCCCCCCCCCCCCCCC(=O)O)C(=O)O)C(=O)N[C@@H](CCCCN)C(=O)N[C@H](C(=O)N[C@@H](CC(C)C)C(=O)N[C@@H](CC(C)C)C(=O)N[C@@H](CCC(=O)O)C(=O)N[C@@H](CCC(N)=O)C(=O)N[C@@H](CCC(=O)O)C(=O)N[C@@H](CCCCN)C(=O)N[C@@H](CCC(N)=O)C(=O)N[C@@H](CCCCN)C(=O)N[C@@H](CCCCN)C(=O)N[C@@H](CCC(N)=O)C(=O)N[C@@H](CCCNC(=N)N)C(=O)N[C@@H](CCC(=O)O)C(=O)N[C@@H](CCC(N)=O)C(=O)N[C@@H](C)C(=O)N[C@@H](CCC(=O)O)C(=O)N[C@H](C(=O)N[C@@H](CC(N)=O)C(=O)N[C@H](C(=O)N[C@@H](CCC(N)=O)C(=O)N[C@H](C(=O)N[C@@H](CC(C)C)C(=O)N[C@@H](C)C(=O)N[C@@H](CCC(N)=O)C(=O)N[C@H](C(N)=O)C(C)C)[C@@H](C)CC)C(C)C)[C@@H](C)O)[C@@H](C)CC)[C@@H](C)CC)C(C)C)C(C)C
Molecule B4 showed an EC50 [nM] (cAMP) in test [1] of 5.76 nM. Besides, the “Emax (% I)” value in test [2] amounted to 6%.

B5: SEQ ID NO 81 (peptide)
peptide: Pentanoyl-VLSLD[dV]PIKLK([γGlu-C16 diacid])KILLEQEKQKKQREQAETNVQILAQV-NH2
SMILES: CCCCC(=O)N[C@H](C(=O)N[C@@H](CC(C)C)C(=O)N[C@@H](CO)C(=O)N[C@@H](CC(C)C)C(=O)N[C@@H](CC(=O)O)C(=O)N[C@@H](C(=O)N1CCC[C@H]1C(=O)N[C@H](C(=O)N[C@@H](CCCCN)C(=O)N[C@@H](CC(C)C)C(=O)N[C@@H](CCCCNC(=O)CC[C@H](NC(=O)CCCCCCCCCCCCCCC(=O)O)C(=O)O)C(=O)N[C@@H](CCCCN)C(=O)N[C@H](C(=O)N[C@@H](CC(C)C)C(=O)N[C@@H](CC(C)C)C(=O)N[C@@H](CCC(=O)O)C(=O)N[C@@H](CCC(N)=O)C(=O)N[C@@H](CCC(=O)O)C(=O)N[C@@H](CCCCN)C(=O)N[C@@H](CCC(N)=O)C(=O)N[C@@H](CCCCN)C(=O)N[C@@H](CCCCN)C(=O)N[C@@H](CCC(N)=O)C(=O)N[C@@H](CCCNC(=N)N)C(=O)N[C@@H](CCC(=O)O)C(=O)N[C@@H](CCC(N)=O)C(=O)N[C@@H](C)C(=O)N[C@@H](CCC(=O)O)C(=O)N[C@H](C(=O)N[C@@H](CC(N)=O)C(=O)N[C@H](C(=O)N[C@@H](CCC(N)=O)C(=O)N[C@H](C(=O)N[C@@H](CC(C)C)C(=O)N[C@@H](C)C(=O)N[C@@H](CCC(N)=O)C(=O)N[C@H](C(N)=O)C(C)C)[C@@H](C)CC)C(C)C)[C@@H](C)O)[C@@H](C)CC)[C@@H](C)CC)C(C)C)C(C)C
For B5, the EC50 [nM] (cAMP) in test [1] was found to be 0.8 nM. Moreover, the “Emax (% I)” value in test [2] was 6%.

B6: SEQ ID NO 18 (peptide)
peptide: Ac-IVLSLD[dV]PIKLK([γGlu-C16 diacid])Q[Aib]LLKQERQKKQREQAEKNVQILEQV-NH2
SMILES: CC[C@H](C)[C@H](NC(C)=O)C(=O)N[C@H](C(=O)N[C@@H](CC(C)C)C(=O)N[C@@H](CO)C(=O)N[C@@H](CC(C)C)C(=O)N[C@@H](CC(=O)O)C(=O)N[C@@H](C(=O)N1CCC[C@H]1C(=O)N[C@H](C(=O)N[C@@H](CCCCN)C(=O)N[C@@H](CC(C)C)C(=O)N[C@@H](CCCCNC(=O)CC[C@H](NC(=O)CCCCCCCCCCCCCCC(=O)O)C(=O)O)C(=O)N[C@@H](CCC(N)=O)C(=O)NC(C)(C)C(=O)N[C@@H](CC(C)C)C(=O)N[C@@H](CC(C)C)C(=O)N[C@@H](CCCCN)C(=O)N[C@@H](CCC(N)=O)C(=O)N[C@@H](CCC(=O)O)C(=O)N[C@@H](CCCNC(=N)N)C(=O)N[C@@H](CCC(N)=O)C(=O)N[C@@H](CCCCN)C(=O)N[C@@H](CCCCN)C(=O)N[C@@H](CCC(N)=O)C(=O)N[C@@H](CCCNC(=N)N)C(=O)N[C@@H](CCC(=O)O)C(=O)N[C@@H](CCC(N)=O)C(=O)N[C@@H](C)C(=O)N[C@@H](CCC(=O)O)C(=O)N[C@@H](CCCCN)C(=O)N[C@@H](CC(N)=O)C(=O)N[C@H](C(=O)N[C@@H](CCC(N)=O)C(=O)N[C@H](C(=O)N[C@@H](CC(C)C)C(=O)N[C@@H](CCC(=O)O)C(=O)N[C@@H](CCC(N)=O)C(=O)N[C@H](C(N)=O)C(C)C)[C@@H](C)CC)C(C)C)[C@@H](C)CC)C(C)C)C(C)C
On to B6, for which the EC50 [nM] (cAMP) in test [1] is 3.55 nM. Moreover, the “Emax (% I)” value in test [2] worked out at 10%.
